Source: patent US20150203577A1 (Chugai, published 2015)
Changes are numbered by the printed parent chain.

T1: mouse FcγRII extracellular domain with C-terminal His tag (mouse, UniProt P08101 30-210)
T1 construct: Made on the basis of NCBI NP-034317.1; also called mFcγRII; mFcgRII
T1 sequence: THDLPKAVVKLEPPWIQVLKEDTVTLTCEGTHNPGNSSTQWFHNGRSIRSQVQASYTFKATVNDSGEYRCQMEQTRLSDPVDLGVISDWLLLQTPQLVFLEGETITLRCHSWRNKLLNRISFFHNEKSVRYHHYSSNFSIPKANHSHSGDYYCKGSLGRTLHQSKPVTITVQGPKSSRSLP

T2: mouse FcγRIII extracellular domain with C-terminal His tag (mouse, UniProt P08508 31-215)
T2 construct: Made on the basis of NCBI NP-034318.2; also called mFcγRIII; mFcgRIII
T2 chain: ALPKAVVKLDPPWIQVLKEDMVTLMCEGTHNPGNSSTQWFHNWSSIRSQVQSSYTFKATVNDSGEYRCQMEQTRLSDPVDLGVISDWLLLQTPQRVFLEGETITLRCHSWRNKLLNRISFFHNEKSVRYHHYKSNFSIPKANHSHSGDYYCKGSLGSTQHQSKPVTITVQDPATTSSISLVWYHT

T3: mouse FcγRII extracellular domain, C-terminally His-tagged (mouse, UniProt P08101 30-210)
T3 construct: the whole entry is named; also called mFcγRII; mFcgRII
T3 sequence: T1 sequence

T4: mouse FcγRIII extracellular domain, C-terminally His-tagged (mouse, UniProt P08508 31-215)
T4 construct: the whole entry is named; also called mFcγRIII; mFcgRIII
T4 chain: T2 chain

B1: H237-MB483/MRAL-k0 (antibody, mouse IgG1, kappa)
heavy: QVQLQESGPGLVKPSETLSLTCAVSGHSISHDHAWSWVRQPPGEGLEWIGFISYSGITNYNPSLQGRVTISRDNSKNTLYLQMNSLRAEDTAVYYCARSLARTTAMDYWGEGTLVTVSSAKTTPPSVYPLAPGSAAQTNSMVTLGCLVKGYFPEPVTVTWNSGSLSSGVHTFPAVLQSDLYTLSSSVTVPSSTWPSETVTCNVAHPASSTKVDKKIVPRDCGCKPCICENYEVESVFIFPPKPKDVLTITLTPKVTCVVVDISKDDPEVQFSWFVDDVEVHTAQTQPREEQFNSTFRSVSELPIMHQDWLNGKEFKCRVNSAAFPAPIEKTISKTKGRPKAPQVYTIPPPKEQMAKDKVSLTCMITDFFPEDITVEWQWNGQPAENYKNTQPIMDTDGSYFVYSKLNVQKSNWEAGNTFTCSVLHEGLHNHHTEKSLSHSPGK
light: not shown
notes: copies: 2 + 2
B2: H237-MB508/MRAL-k0 (antibody, mouse IgG1, kappa)
heavy: B1 heavy with N230A, S235M
light: not shown
notes: copies: 2 + 2
B3: H237-MB489/MRAL-k0 (antibody, mouse IgG1, kappa)
heavy: B1 heavy with E229Q, N230P, Y231N
light: not shown
notes: copies: 2 + 2
B4: H237-MB470/MRAL-k0 (antibody, mouse IgG1, kappa)
heavy: B1 heavy with S235E
light: not shown
notes: copies: 2 + 2
B5: H237-MB510/MRAL-k0 (antibody, mouse IgG1, kappa)
heavy: B1 heavy with S235M
light: not shown
notes: copies: 2 + 2
B6: H237-MB512/MRAL-k0 (antibody, mouse IgG1, kappa)
heavy: B1 heavy with N230V, S235M
light: not shown
notes: copies: 2 + 2
B7: H237-MB482/MRAL-k0 (antibody, mouse IgG1, kappa)
heavy: B1 heavy with N230D
light: not shown
notes: copies: 2 + 2
B8: H237-MB514/MRAL-k0 (antibody, mouse IgG1, kappa)
heavy: B1 heavy with E229I, N230P, Y231A, S235M
light: not shown
notes: copies: 2 + 2
B9: H237-MB481/MRAL-k0 (antibody, mouse IgG1, kappa)
heavy: B1 heavy with N230A
light: not shown
notes: copies: 2 + 2
B10: H237-MB469/MRAL-k0 (antibody, mouse IgG1, kappa)
heavy: B1 heavy with N230D, S235E
light: not shown
notes: copies: 2 + 2
B11: H237-MB521/MRAL-k0 (antibody, mouse IgG1, kappa)
heavy: B1 heavy with N230V, S235W
light: not shown
notes: copies: 2 + 2
B12: H237-MB484/MRAL-k0 (antibody, mouse IgG1, kappa)
heavy: B1 heavy with N230T
light: not shown
notes: copies: 2 + 2
B13: H237-MB471/MRAL-k0 (antibody, mouse IgG1, kappa)
heavy: B1 heavy with N230T, S235E
light: not shown
notes: copies: 2 + 2
B14: H237-MB509/MRAL-k0 (antibody, mouse IgG1, kappa)
heavy: B1 heavy with N230D, S235M
light: not shown
notes: copies: 2 + 2
B15: H237-MB516/MRAL-k0 (antibody, mouse IgG1, kappa)
heavy: B1 heavy with E229Q, N230P, Y231N, S235M
light: not shown
notes: copies: 2 + 2
B16: H237-MB487/MRAL-k0 (antibody, mouse IgG1, kappa)
heavy: B1 heavy with E229I, N230P, Y231A
light: not shown
notes: copies: 2 + 2
B17: H237-MB488/MRAL-k0 (antibody, mouse IgG1, kappa)
heavy: B1 heavy with N230P, Y231N
light: not shown
notes: copies: 2 + 2
B18: H237-MB511/MRAL-k0 (antibody, mouse IgG1, kappa)
heavy: B1 heavy with N230T, S235M
light: not shown
notes: copies: 2 + 2
B19: H237-MB517/MRAL-k0 (antibody, mouse IgG1, kappa)
heavy: B1 heavy with N230A, S235W
light: not shown
notes: copies: 2 + 2
B20: H237-MB518/MRAL-k0 (antibody, mouse IgG1, kappa)
heavy: B1 heavy with N230D, S235W
light: not shown
notes: copies: 2 + 2
B21: H237-MB468/MRAL-k0 (antibody, mouse IgG1, kappa)
heavy: B1 heavy with N230A, S235E
light: not shown
notes: copies: 2 + 2
B22: H237-MB520/MRAL-k0 (antibody)
heavy: B1 heavy with N230T, S235W
light: not shown
notes: copies: 2 + 2
B23: H237-MB485/MRAL-k0 (antibody, mouse IgG1, kappa)
heavy: B1 heavy with N230V
light: not shown
notes: copies: 2 + 2
B24: H237-MB472/MRAL-k0 (antibody, mouse IgG1, kappa)
heavy: B1 heavy with N230V, S235E
light: not shown
notes: copies: 2 + 2
B25: H237-MB714/MRAL-k0 (antibody, mouse IgG1, kappa)
heavy: B1 heavy with N230P, Y231N, S235G
light: not shown
notes: copies: 2 + 2
B26: H237-MB793/MRAL-k0 (antibody, mouse IgG1, kappa)
heavy: B1 heavy with E229Q, N230P, Y231N, S235I
light: not shown
notes: copies: 2 + 2
B27: H237-MB719/MRAL-k0 (antibody, mouse IgG1, kappa)
heavy: B1 heavy with N230P, Y231N, S235Q
light: not shown
notes: copies: 2 + 2
B28: H237-MB718/MRAL-k0 (antibody, mouse IgG1, kappa)
heavy: B1 heavy with N230P, Y231N, S235T
light: not shown
notes: copies: 2 + 2
B29: H237-MB715/MRAL-k0 (antibody, mouse IgG1, kappa)
heavy: B1 heavy with N230P, Y231N, S235V
light: not shown
notes: copies: 2 + 2
B30: H237-MB716/MRAL-k0 (antibody, mouse IgG1, kappa)
heavy: B1 heavy with N230P, Y231N, S235I
light: not shown
notes: copies: 2 + 2
B31: H237-MB717/MRAL-k0 (antibody, mouse IgG1, kappa)
heavy: B1 heavy with N230P, Y231N, S235P
light: not shown
notes: copies: 2 + 2

These binders were tested against T1, mouse FcγRII extracellular domain with … (assay: SPR Biacore T200).
Method: (§1) Each altered antibody was analyzed for its interaction with each Fcγ receptor prepared above using Biacore T100 (GE Healthcare Japan Corp.), Biacore T200 (GE Healthcare Japan Corp.), Biacore A100, or Biacore 4000. The running buffer used was HBS-EP+ (GE Healthcare Japan Corp.). The assay temperature was set to 25° C. The sensor chips used were chips prepared by immobilizing Protein L (ACTIGEN or BioVision) onto Series S Sensor Chip CM5 (GE Healthcare Japan Corp.) or Series S Sensor Chip CM4 (GE Healthcare Japan Corp.) by the amine coupling method.
(§2) In order to calculate the KD value of each altered antibody for FcγR, kinetic analysis was conducted according to the following method: first, the antibody of interest was captured onto any of these chips and allowed to interact with mFcγR diluted with a running buffer. For the obtained sensorgram, the assay results were globally fit into the 1:1 Langmuir binding model using Biacore Evaluation Software to calculate an association rate constant ka (L/mol/s) and a dissociation rate constant kd (1/s). From these values, the dissociation constant KD (mol/L) was calculated.

relative mFcγRII-binding activity (mIgG1 = 1)	Binder
9.4	B1
5.5	B2
6.9	B3
63.8	B4
6.5	B5
3.5	B6
14.1	B7
4.5	B8
8.5	B9
57.1	B10
1.6	B11
14.9	B12
91.4	B13
10.7	B14
38.6	B15
6.8	B16
28.7	B17
8.3	B18
1.2	B19
1.2	B20
63.1	B21
1.8	B22
5	B23
39.4	B24

Target: T2, mouse FcγRIII extracellular domain with …
Test: SPR Biacore T200
Method: as §1, §2

relative mFcγRIII-binding activity (mIgG1 = 1)	Binder
0.9	B1
0.4	B2
1.1	B3
4.9	B4
0.6	B5
0.3	B6
0.7	B7
0.2	B8
0.6	B9
2.8	B10
0.7	B11
1.1	B12
4.8	B13
0.6	B14
1.6	B15
0.5	B16
1.8	B17
0.6	B18
0.4	B19
0.4	B20
2.8	B21
1.3	B22
0.5	B23
2.5	B24

What follows are binders tested against T3, mouse FcγRII extracellular domain, … (assay: SPR Biacore T200, KD ratio).
Method: as §1, §2

relative mFcγRII-binding activity (mIgG1 = 1) [fold]	Binder
14.2	B25
1.17	B26
70.4	B27
0.85	B28
0.89	B29
3.98	B30
0.41	B31

Target: T4, mouse FcγRIII extracellular domain, …
Test: SPR Biacore T200, KD ratio
Method: as §1, §2

relative mFcγRIII-binding activity (mIgG1 = 1) [fold]	Binder
1.61	B25
0.05	B26
2.31	B27
0.05	B28
0.02	B29
0.05	B30
0.03	B31
